In patent publication US20130261012A1 one finds Kd data, which are given here for one molecule.

For this assay, the target named is T1, FN14 on transiently transfected 293-F cells (human) (UniProt Q9NP84).
T1 sequence (looked up): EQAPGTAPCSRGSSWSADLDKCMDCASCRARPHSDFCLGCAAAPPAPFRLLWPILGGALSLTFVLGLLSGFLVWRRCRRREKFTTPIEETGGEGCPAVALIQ
The assay is described as follows: apparent affinity of the recombinant chimeric mAb, saturation binding.

B1: anti-FN14 mAb FS24 (after 7 additional selections, recombinant chimeric mAb) (antibody, from another filing, V domains shown)
VH: AVTLDESGGGLQTPGGALSLVCKASGFTFSSYDMAWVRQEPGKGLEWVAGIDYDGSGRRYAPAVKGRATISRDNGQSTLRLQLNNLRAEDTGTYYCTKCGYTGGCDYEGGYIDAWGHGTEVIVSS
VL: ALTQPSSVSANPGETVKITCSGGGSSYYAGSYYYGWYQQKAPGSAPVTLIYYNNKRPSDIPSRFSGSLSGSTNTLTITGVRADDEAVYFCGSIDNSGAAFGAGTTLTVLG
For the molecule B1, the Kd was 0.26 nM.
